Results on five molecules are retold here after patent US20240392013A1 (STELEXIS THERAPEUTICS, published 2024).

Positions count from the first letter of the chain named.

A word on the Kd: it is a measure of binding affinity in units of concentration. What is called koff is the rate constant with which the complex falls apart. As a reminder, the kon is the second-order rate constant of association.

T1: IL1RAP on HEK-Blue IL1β / HEK-Blue IL33 reporter cells (UniProt Q9NPH3 21-570, limits assumed)
T1 sequence (looked up): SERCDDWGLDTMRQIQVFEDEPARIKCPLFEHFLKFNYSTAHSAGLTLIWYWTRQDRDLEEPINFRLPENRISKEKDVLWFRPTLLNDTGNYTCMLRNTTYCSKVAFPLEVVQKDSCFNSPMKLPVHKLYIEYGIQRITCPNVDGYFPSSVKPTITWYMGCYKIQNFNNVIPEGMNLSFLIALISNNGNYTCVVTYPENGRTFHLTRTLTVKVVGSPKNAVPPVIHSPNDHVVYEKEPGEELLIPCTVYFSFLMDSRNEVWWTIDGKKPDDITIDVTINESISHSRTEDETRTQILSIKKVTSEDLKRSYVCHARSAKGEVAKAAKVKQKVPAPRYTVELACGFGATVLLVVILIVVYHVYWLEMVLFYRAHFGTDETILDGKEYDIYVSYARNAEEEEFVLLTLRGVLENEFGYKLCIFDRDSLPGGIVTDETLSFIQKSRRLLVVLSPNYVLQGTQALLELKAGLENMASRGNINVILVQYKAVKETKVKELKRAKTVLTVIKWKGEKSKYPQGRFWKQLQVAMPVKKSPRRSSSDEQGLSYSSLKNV

T2: recombinant mouse IL1RAP protein (Sino Biological, Cat #52657-M08H) (mouse, UniProt Q61730 21-359)
T2 construct: Bought protein
T2 sequence (looked up): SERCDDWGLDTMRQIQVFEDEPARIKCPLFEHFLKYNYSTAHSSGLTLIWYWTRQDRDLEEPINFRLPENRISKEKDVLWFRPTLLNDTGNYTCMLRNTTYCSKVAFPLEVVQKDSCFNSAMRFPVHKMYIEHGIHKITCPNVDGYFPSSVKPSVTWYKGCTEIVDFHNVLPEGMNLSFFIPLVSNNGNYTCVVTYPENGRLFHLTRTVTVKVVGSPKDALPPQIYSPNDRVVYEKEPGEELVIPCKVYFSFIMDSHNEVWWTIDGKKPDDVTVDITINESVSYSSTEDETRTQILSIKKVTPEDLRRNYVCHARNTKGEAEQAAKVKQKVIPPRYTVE

T3: cyIL1RAP-His (Lake Pharma) (cynomolgus monkey, UniProt A0A2K5X5J5 21-367)
T3 construct: Bought protein (Lake Pharma, lot 16205819371); also called cynomolgus IL1RAP; monkey IL1RAP; not shown: His tag
T3 sequence: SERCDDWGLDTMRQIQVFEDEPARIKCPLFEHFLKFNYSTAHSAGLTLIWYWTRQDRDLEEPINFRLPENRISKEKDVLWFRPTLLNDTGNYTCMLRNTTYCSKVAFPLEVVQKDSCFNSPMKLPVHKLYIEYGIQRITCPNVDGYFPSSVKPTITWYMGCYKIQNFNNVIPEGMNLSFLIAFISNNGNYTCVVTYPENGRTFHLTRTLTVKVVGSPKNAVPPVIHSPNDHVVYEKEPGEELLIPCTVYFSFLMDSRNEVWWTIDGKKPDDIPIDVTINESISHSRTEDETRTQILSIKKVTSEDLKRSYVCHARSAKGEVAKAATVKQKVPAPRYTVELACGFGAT

T4: recombinant human IL1RAP protein, extracellular domain His-tagged (Sino Biological, Cat #10121-H08H) (human, UniProt Q9NPH3 21-367)
T4 construct: extracellular domain; Bought protein; The Octet analyte is printed as huIL1RAP-His (Sino Biological, lot MB08MA1301) without a catalogue number; also called huIL1RAP-His; hIL1RAP; not shown: His tag
T4 sequence (looked up): T3 sequence with F183L, P273T, T326K

B1: STLX2021 (antibody, V domains shown)
VH: EVQVVESGGGLVKPGGSLRLSCAASGFIFSKAWMSWVRQAPGKGLEWVGRIKSKTDGGTTDYAAPVKGRFTISRDDSKNTLYLQMNSLKTEDTAVYYCTTGGYVFDYWGQGALVTVSS
VL: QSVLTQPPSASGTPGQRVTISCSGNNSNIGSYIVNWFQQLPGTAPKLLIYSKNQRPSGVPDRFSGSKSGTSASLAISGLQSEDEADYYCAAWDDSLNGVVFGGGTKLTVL
notes: Purified from hybridoma of immunized Alivamab mice; intact IgG; captured on anti-mouse IgG Fc sensors in Octet; lambda light chain; also called 74804_21D11A
B2: STLX2005 (antibody, V domains shown)
VH: EVQLVDSGGGLVKPGGSLRLSCAATGFTFSNVWMSWVRQGSGKGLEWVGRIKSKTDGGTIDYAAPVKGRFTISRDDPKNTLYLQMNSLKTEDTAVYYCTTGELLGFDYWGQGTLVTVSS
VL: DIVMTQSPLSLPVTPGEPASISCRSGQSLLHNNGFNCLAWYLQKPGQSPQLLIYLGSNRASGVPDRFSGSGSGTDFTLKISRVEAEDVGVFYCMQTLQTPITFGQGTRLEIK
notes: Purified from hybridoma of immunized Alivamab mice; intact IgG; captured on anti-mouse IgG Fc sensors in Octet; kappa light chain; also called 74804_05B24A
B3: STLX2045 (antibody, V domains shown)
VH: B2 VH with D6E, S21A, T55A, P77S, V95M
VL: B2 VL with N32S, F91Y
notes: Purified from hybridoma of immunized Alivamab mice; intact IgG; captured on anti-mouse IgG Fc sensors in Octet; kappa light chain; also called 74804_45C18A
B4: STLX2016 (antibody, V domains shown)
VH: QVQLQESGPGLVKPSETLSLTCTVSGGSISSYFWNWIRQPPGKGLEWIGYGHYSGNSNHNPSLKSRVTISVDMSKNQFSLKMSSVTAADTAMYYCAREGLHDAFDIWGQGTMVTVSS
VL: not shown
notes: Purified from hybridoma of immunized Alivamab mice; intact IgG; captured on anti-mouse IgG Fc sensors in Octet; lambda light chain; also called 74804_16M09A
B5: STLX2027 (antibody, V domains shown)
VH: EVQLVESGGGLVKPGGSLRLSCAASGFTFITYSMNWVRQAPGKGLEWVSSISSISSYIYYADSVKGRFTISRDNAKNSLYLQMDSLRAEDSAVYYCAREGIVGPTGYFDSWGQGTLVTVSS
VL: QSVLTQPPSVSAAPGQKVTISCSGSSSNIGNHYVSWYQQLPGTAPKLLIYDNNKRPSGIPDRFSGSKSGTSATLGITGLQTGDEADYYCGTWDSRLSAYWVFGGGTKLTVL
notes: Purified from hybridoma of immunized Alivamab mice; intact IgG; captured on anti-mouse IgG Fc sensors in Octet; lambda light chain; also called 74804_27I24A

The target of one experiment is T1, IL1RAP on HEK-Blue IL1β / HEK-Blue IL33 …. Description: cell-based or functional assay.
Consider B1, for which the “IC50, HEK-BlueIL1β NFκB Reporter Assay” value was 5.32e-10 M (implied; unit not printed) and the “Max % Inhibition at 200 nM, HEK-BlueIL1β NFκB Reporter Assay” value came out at 101%.

For B2, the “IC50, HEK-BlueIL1β NFκB Reporter Assay” value is 4.46e-10 M (implied; unit not printed) and the “Max % Inhibition at 200 nM, HEK-BlueIL1β NFκB Reporter Assay” value came out at 99%.

Consider B3, for which the “IC50, HEK-BlueIL1β NFκB Reporter Assay” value is 1.93e-10 M (implied; unit not printed) and the “Max % Inhibition at 200 nM, HEK-BlueIL1β NFκB Reporter Assay” value was found to be 100%.

Regarding B4, the “IC50, HEK-BlueIL1β NFκB Reporter Assay” value is 8.05e-10 M (implied; unit not printed) and the “Max % Inhibition at 200 nM, HEK-BlueIL1β NFκB Reporter Assay” value was determined as 100%.

In the case of B5, the “IC50, HEK-BlueIL1β NFκB Reporter Assay” value was 1.96e-09 M (implied; unit not printed) and the “Max % Inhibition at 200 nM, HEK-BlueIL1β NFκB Reporter Assay” value was determined as 100%.

The target is the same in a further experiment. Description: cell-based or functional assay. This is another data set of the same source.
With B1, the “IC50, HEK-BlueIL33 NFκB Reporter Assay” value is 3.54e-09 M (implied; unit not printed) and the “Max % Inhibition at 200 nM, HEK-BlueIL33 NFκB Reporter Assay” value came out at 85%.

As for B2, the “IC50, HEK-BlueIL33 NFκB Reporter Assay” value is 2.72e-09 M (implied; unit not printed) and the “Max % Inhibition at 200 nM, HEK-BlueIL33 NFκB Reporter Assay” value stood at 85%.

Regarding B3, the “IC50, HEK-BlueIL33 NFκB Reporter Assay” value was 1.37e-09 M (implied; unit not printed) and the “Max % Inhibition at 200 nM, HEK-BlueIL33 NFκB Reporter Assay” value stood at 98%.

As to B4, the “IC50, HEK-BlueIL33 NFκB Reporter Assay” value was 7.66e-09 M (implied; unit not printed) and the “Max % Inhibition at 200 nM, HEK-BlueIL33 NFκB Reporter Assay” value stood at 76%.

With B5, the “IC50, HEK-BlueIL33 NFκB Reporter Assay” value is 8.31e-09 M (implied; unit not printed) and the “Max % Inhibition at 200 nM, HEK-BlueIL33 NFκB Reporter Assay” value is 86%.

A further experiment has as its target T2, recombinant mouse IL1RAP protein (Sino …). Description: cell-free ELISA, mouse IL1RAP coated; data not shown. How it is done: Recombinant human or mouse IL1RAP proteins (Sino Biological, Beijing, China; Cat #10121-H08H and Sino Biological, Cat #52657-M08H respectively) were diluted in PBS, pH 7.4 at concentration of 1 μg/ml, coated on high-binding 384-well clear plates and incubated overnight at 4° C. Following, plates were washed 3× with 0.05% Tween-20 in PBS, pH 7.5 and then blocked with 1% BSA in PBS for 1 hour at room temperature. After 3× washes, wells were incubated with each antibody at the highest concentration of 100 nM followed by seven serial half log dilutions (in 1% BSA and 0.05% Tween-20 in PBS) for 1 hour at room temperature. Plates were then washed 3× and incubated with […] detection antibody (Medna, TX, USA; Cat #D8212, 0.5 μg/ml diluted in 0.02% Tween-20 in PBS). After 5× washes, Supersignal ELISA Pico substrate (Thermofisher, MA, USA; Cat #37069) was applied to wells and chemiluminescent signal was read on Sprectramax L for 200 ms/well. Similarly, detection with specific κ and λ antibodies was conducted to define light chain isotyping.
For the molecule B1, the binding result is “no binding (tested: 100 nM)”.

B2: the binding result is listed as “no binding (tested: 100 nM)”.

For B3, the binding result was “no binding (tested: 100 nM)”.

On to B4, for which the binding result was “no binding (tested: 100 nM)”.

In the case of B5, the binding result is recorded as “no binding (tested: 100 nM)”.

A further experiment concerns the target T3, cyIL1RAP-His (Lake Pharma). Description: Octet BLI; mAb captured on anti-mouse IgG Fc sensor; cyIL1RAP-His analyte. How it is done: (§1) Antibodies were diluted in kinetics buffer (0.1% BSA, 0.02% Tween-20 and 0.05% NaN₃ in PBS) and loaded onto 16 channel anti-mouse IgG Fc capture sensors (AMC, Cat #2001073; Sartorius, Göttingen, Germany). Human, huIL1RAP-His (Sino Biological, lot: MB08MA1301), and monkey, cyIL1RAP-His (Lake Pharma, NY, USA; lot:16205819371) proteins were titrated starting from the highest concentration of 100 nM and followed by 50 nM and 25 nM. Purified antibodies were loaded at 5 μg/ml in kinetics buffer. The experimental parameters selected to determine the kinetic constants were Baseline for 60 s, Loading of antibody to sensor for 180 s, Association of analyte to antibody for 120 s, Dissociation for 1200 s and Regeneration in 10 mM Glycine pH 1.7 for 4×30 s.
(§2) Regeneration cycle tracking was selected for 12 cycles. Binding to human and cynomolgus IL1RAP was measured and KD (M) kinetics were calculated. Also, the disassociation rate (Kdis) (1/s) and association rate (Kon) (1/Ms) kinetics were calculated (data not shown).
On the technique in general: In BLI a coated tip is dipped into the sample, and binding shifts an interference pattern.
Consider B1, for which binding was characterised by a dissociation constant (Kd) of 10.2 nM, the Response turned out to be 0.232, the koff turned out to be 0.00259 s⁻¹ and the kon stood at 254000 M⁻¹ s⁻¹.

In the case of B2, the Kd worked out at 2.1 nM, the Response was 0.3, the koff stood at 0.000563 s⁻¹ and the kon came out at 268000 M⁻¹ s⁻¹.

B3 yielded a Kd of 0.863 nM, a Response of 0.277, a koff of 0.000291 s⁻¹ and a kon of 338000 M⁻¹ s⁻¹.

In the case of B4, the Kd came out at 3.94 nM, the Response amounted to 0.199, the koff worked out at 0.004 s⁻¹ and the kon stood at 1.01e+06 M⁻¹ s⁻¹.

For the molecule B5, the affinity, expressed as Kd, was 2.82 nM; the Response turned out to be 0.242; the koff was 0.00107 s⁻¹; the kon was 380000 M⁻¹ s⁻¹.

The target of the next experiment is T4, recombinant human IL1RAP protein, …. Description: Octet BLI; mAb captured on anti-mouse IgG Fc sensor; huIL1RAP-His analyte. How it is done:
as §1, §2
As to B1, the Kd stood at 2.19 nM, the Response was 0.249, the koff was found to be 0.000478 s⁻¹ and the kon came to 218000 M⁻¹ s⁻¹.

For the molecule B2, the Kd was 1.67 nM, the Response amounted to 0.268, the koff came to 0.000491 s⁻¹ and the kon amounted to 294000 M⁻¹ s⁻¹.

Turning to B3, the Kd amounted to 0.648 nM, the Response is 0.261, the koff was 0.000273 s⁻¹ and the kon stood at 422000 M⁻¹ s⁻¹.

With B4, the Kd is 0.834 nM, the Response is 0.257, the koff turned out to be 0.000411 s⁻¹ and the kon stood at 493000 M⁻¹ s⁻¹.

Regarding B5, the Kd amounted to 2.13 nM, the Response was found to be 0.229, the koff turned out to be 0.000747 s⁻¹ and the kon turned out to be 350000 M⁻¹ s⁻¹.
